Holding throughout (assay): IEDB peptide-MHC binding, purified MHC/competitive/radioactivity; filed as Kd, often an IC50 or EC50 that approximates it; ≥ and ≤ were set here for values at or beyond the usual limits of such assays
Experiment [1] has as its target HLA-A*02:02.
For experiment [2], the target named is HLA-A*02:03.
Experiment [3] concerns the target HLA-A*02:06.
The mark [4] stands for this setting: source organism: Vaccinia virus WR.
[5] abbreviates: source organism: Dengue virus 1 Brazil/97-11/1997.
Setting [6] is: source organism: SARS coronavirus Tor2.
[7] abbreviates: source organism: Mammarenavirus brazilense.
Setting [8] is: source organism: Mammarenavirus guanaritoense.

Usually Kd stands for the concentration at which binding is half-saturated. RTWKVLSIM: the Kd in experiment [1] (setting [4]) was 19100 nM; in experiment [2] (setting [4]), 2630 nM; in experiment [3] (setting [4]), not below 34000 nM.

Turning to PMIIGEPIIV, the figures for the dissociation constant Kd in experiment [1] (setting [4]), in experiment [2] (setting [4]) and in experiment [3] (setting [4]) were not below 70000 nM, 8840 nM and not below 69800 nM, respectively.

Consider SALMTLDDLA, for which the results for the dissociation constant (Kd) in experiment [1] (setting [4]), in experiment [2] (setting [4]) and in experiment [3] (setting [4]) were 210 nM, 2320 nM and 193 nM, respectively.

On to IVAIDLDPV, for which the dissociation constant (Kd) in experiment [3] (setting [5]) was 11.2 nM.

For FQESFYEDIA, the values for the dissociation constant (Kd) in experiment [1] (setting [4]), in experiment [2] (setting [4]) and in experiment [3] (setting [4]) were 2560 nM, 555 nM and 303 nM, respectively.

For FVFNGTSWFI, the Kd in experiment [1] (setting [6]) is 1.01 nM; in experiment [2] (setting [6]) it was 2.15 nM; in experiment [3] (setting [6]), 0.439 nM.

Regarding YLYNKYSFKL, the results for the Kd in experiment [1] (setting [4]), in experiment [2] (setting [4]) and in experiment [3] (setting [4]) were 0.109 nM, 0.0349 nM and 0.14 nM, respectively.

As to LLEQLIENI, the dissociation constant Kd stood at 702 nM in experiment [1] (setting [4]), 1960 nM in experiment [2] (setting [4]) and 539 nM in experiment [3] (setting [4]).

With LLPDALLFTL, the Kd in experiment [1] (setting [7]) was found to be 4.72 nM; in experiment [2] (setting [7]), 732 nM; in experiment [3] (setting [7]), 78.9 nM.

Regarding FISSFLLPLT, the results for the Kd in experiment [1] (setting [4]), in experiment [2] (setting [4]) and in experiment [3] (setting [4]) were 38.6 nM, 44.2 nM and 50.6 nM, respectively.

For the sequence DLTALLSCI, the Kd in experiment [1] (setting [4]) stood at 5200 nM; in experiment [2] (setting [4]), 996 nM; in experiment [3] (setting [4]), 4880 nM.

For the sequence EIRGVLPEET, the Kd in experiment [1] (setting [4]) was 9600 nM; in experiment [2] (setting [4]) it was 4870 nM; in experiment [3] (setting [4]), not below 20100 nM.

For the sequence AIFNNRNLAA, the Kd in experiment [1] (setting [4]) was 450 nM; in experiment [2] (setting [4]) it was 103 nM; in experiment [3] (setting [4]) it was 774 nM.

TISWMMKLGI: the values for the dissociation constant Kd in experiment [1] (setting [4]), in experiment [2] (setting [4]) and in experiment [3] (setting [4]) were 7840 nM, 972 nM and 2780 nM, respectively.

For the sequence KLIEYSDFA, the dissociation constant Kd turned out to be 0.0948 nM in experiment [1] (setting [6]), 0.534 nM in experiment [2] (setting [6]) and 0.705 nM in experiment [3] (setting [6]).

On to IASAPQQLCT, for which the Kd was not below 53200 nM in experiment [1] (setting [4]), not below 70400 nM in experiment [2] (setting [4]) and 8320 nM in experiment [3] (setting [4]).

As to TTNNLLEQL, the values for the Kd in experiment [1] (setting [4]), in experiment [2] (setting [4]) and in experiment [3] (setting [4]) were 122 nM, 1420 nM and 3040 nM, respectively.

NTTTFITVLT: the figures for the Kd in experiment [1] (setting [4]), in experiment [2] (setting [4]) and in experiment [3] (setting [4]) were 1960 nM, 596 nM and 600 nM, respectively.

In the case of HTNHSDISM, the Kd in experiment [1] (setting [4]) was 8810 nM; in experiment [2] (setting [4]), 4140 nM; in experiment [3] (setting [4]), 1200 nM.

As for MSPALFFTFL, the Kd is 546 nM in experiment [1] (setting [7]), 7630 nM in experiment [2] (setting [7]) and 834 nM in experiment [3] (setting [7]).

IIFWFSLEI: the figures for the Kd in experiment [1] (setting [6]), in experiment [2] (setting [6]) and in experiment [3] (setting [6]) were 1.75 nM, 87 nM and 4.64 nM, respectively.

On to PVETLFGSYI, for which the Kd was 13700 nM in experiment [1] (setting [4]), 11800 nM in experiment [2] (setting [4]) and not below 69800 nM in experiment [3] (setting [4]).

As for FIISTLNKIL, the values for the dissociation constant (Kd) in experiment [1] (setting [4]), in experiment [2] (setting [4]) and in experiment [3] (setting [4]) were 5080 nM, 1.8 nM and 8.1 nM, respectively.

Consider VVIGLLFMI, for which the Kd in experiment [3] (setting [5]) turned out to be 5.61 nM.

In the case of VTFINDYANL, the figures for the Kd in experiment [1] (setting [4]), in experiment [2] (setting [4]) and in experiment [3] (setting [4]) were 99.1 nM, 247 nM and 148 nM, respectively.

As for RLRQDTEDIV, the values for the Kd in experiment [1] (setting [4]), in experiment [2] (setting [4]) and in experiment [3] (setting [4]) were 134 nM, 284 nM and 7490 nM, respectively.

With AISAVYFKA, the figures for the Kd in experiment [1] (setting [4]), in experiment [2] (setting [4]) and in experiment [3] (setting [4]) were 3.65 nM, 525 nM and 149 nM, respectively.

In the case of AVIPFDDIV, the Kd was determined as 313 nM in experiment [1] (setting [4]), 241 nM in experiment [2] (setting [4]) and 42.4 nM in experiment [3] (setting [4]).

On to NQILEENVEV, for which the Kd in experiment [3] (source organism: Dengue virus 2 Jamaica/1409/1983) amounted to 56.1 nM.

In the case of ALLADKFPV, the Kd turned out to be 29.1 nM in experiment [1] (setting [6]), 604 nM in experiment [2] (setting [6]) and 22.8 nM in experiment [3] (setting [6]).

Regarding IMECSRMLDT, the Kd in experiment [1] (setting [4]) was 5240 nM; in experiment [2] (setting [4]) it was 7200 nM; in experiment [3] (setting [4]), not below 69800 nM.

For the sequence GLTTHCTKL, the Kd in experiment [1] (setting [4]) was 100 nM; in experiment [2] (setting [4]), 30 nM; in experiment [3] (setting [4]), not below 31600 nM.

Turning to NMCNSDVSV, the results for the Kd in experiment [1] (setting [4]), in experiment [2] (setting [4]) and in experiment [3] (setting [4]) were 80 nM, 30.3 nM and 97 nM, respectively.

With ALVFLILCFT, the dissociation constant Kd turned out to be 209 nM in experiment [1] (setting [6]), 1120 nM in experiment [2] (setting [6]) and 229 nM in experiment [3] (setting [6]).

Regarding TLVDLCFWS, the equilibrium dissociation constant (Kd) is 57.9 nM in experiment [1] (setting [8]), 523 nM in experiment [2] (setting [8]) and 134 nM in experiment [3] (setting [8]).

For TVGMLIYSM, the equilibrium dissociation constant (Kd) was 490 nM in experiment [1] (setting [4]), 6090 nM in experiment [2] (setting [4]) and 9170 nM in experiment [3] (setting [4]).
